# Measurements published in the nanobody polyreactivity screen of Harvey et al. (2022).
# Assay: yeast display, Sf9 membrane polyspecificity reagent, FACS + sequencing; frameworks hold sequencing errors
# Outline: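 Synthetic nanobody libraries on Saccharomyces cerevisiae BJ5465 were galactose-induced for 36–48 hours, stained 1 hour at 4 °C with 10% biotinylated, detergent-solubilized Sf9 membrane reagent and enriched on streptavidin microbeads. FACS then separated cells into low and high (top ~1%) gates by anti-HA (expression) and streptavidin (reagent binding) fluorescence. Genes were colony-PCR amplified, MiSeq 2 × 250 sequenced and CDR-length filtered. A clone's polyreactivity label is that of its gate of origin.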
row,Sequence,polyreactivity (PSR sort gate)
1,QVQLVESGGGLVQAGGSLRLSCAASGRIFWYNAMGWYRQAPGKQRELVAAITSGGRTYYADSVKGRFTISRDNAKNTVYLQMNSLKPEDTAVYYCAATYPSYTYDYWGQGTQVTVSS,low polyreactivity
2,QVQLVESGGGLVQAGGSLRLSCAASGRIFWYNGKGWYRQAPGKERELVAAISYSGGSTNYADSVKGRFTISRDNAKNTVYLQMNSLKPEATAVYYCAAPVPTYHTAWRFFRPDYGYWGQGTQVTVSS,high polyreactivity
3,QVQLVESGGGLVQAGGSLRLSCAASGRIFWYNTMGWYRQAPGKERELVATITTGGRTNYADSVKGRFTISRDNAKNTVYLQMNSLKPEDTAVYYCNAVRGLWVTWRYYYWGQGTQVTVSS,high polyreactivity
4,QVQLVESGGGLVQAGGSLRLSCAASGRIFWYYAMGWYRQAPGKERELVASIRWGGGNTYYADSVKGRFTISRDNAKNTVYLQMNSLKPEDTAVYYCAKSKVSPSGDFYYWGQGTQVTVSS,high polyreactivity
5,QVQLVESGGGLVQAGGSLRLSCAASGRIFWYYVMGWYRQAPGKEREFVASISSGGSTYYADSVKGRFTISRDNAKNTVYLQMNSLKPEDTAVYYCNAYVYGQRVWYDYWGQGTQVTVSS,high polyreactivity
6,QVQLVESGGGLVQAGGSLRLSCAASGRIFYANAMGWYRQAPGKERELVAAISSGGSTYYADSVKGRFTISRDNAKNTVYLQMNSLKPEDTAVYYCAKDTGSRTDSWTVWHDYWGQGTQVTVSS,low polyreactivity
7,QVQLVESGGGLVQAGGSLRLSCAASGRIFYANSMGWYRQAPGKERELVASISARGGYTYYADSVKGRFTISRDTAKNTVYLQMNSLKPEDTAVYYCAAEYLAVSGYWYAYWGQGTQVTVSS,high polyreactivity
8,QVQLVESGGGLVQAGGSLRLSCAASGRIFYANTMGWYRKATGKERELVAAISSGGSTTYADSVKGRFTISRENAKNTVYLQMNSLKPEDPAVYYCATNTWYHYQRMYYWGQGTQVTVSS,high polyreactivity
9,QVQLVESGGGLVQAGGSLRLSCAASGRIFYAYAMGWYRQAPGKERELVATITGIGGSTYADSVKGRFTISRDNAKNTVYLQMNSLKPEDTAVYYCNAAKWLTSGGLDYWGQGTQVTVSS,high polyreactivity
10,QVQLVESGGGLVQAGGSLRLSCAASGRIFYDYTMGWYRQAPVKERELVATITSGGNTNYADSVKGRFTISRDNAKNTVYLQMNSLKPEDTEVYYCNADFGYWWDGSRYDYWGQGTQVTVSA,low polyreactivity
11,QVQLVESGGGLVQAGGSLRLSCAASGRIFYFNAMGWYRQAPGKERELVAAMSWTGGSTYYADSVKGRFTISRDTAKNTVYLQMNSLKPEDTAVYYCAADRALSISLYPIASFDYWGQGTQVTVSS,low polyreactivity
12,QVQLVESGGGLVQAGGSLRLSCAASGRIFYFNARGWYRQAPGKERELVAAITSGGSTYYADSVKGRFTISRDNAKNTVYLQMNSLKPEDTAVYYCATDWPHWRYVYWFDYWGQGTQVTVSS,low polyreactivity
13,QVQLVESGGGLVQAGGSLRLSCAASGRIFYFYAMGWYRQAPGKEMELVAAISTSGGSTYYADSVKGRFTISRDNAKNTVYLQMNSLKPEDTAVYYCNADGYQSRWYYYNYDYWGQGTQVTVSS,low polyreactivity
14,QVQLVESGGGLVQAGGSLRLSCAASGRIFYFYAMGWYRQAPGKERELVAAISRRGGTTNYADSVKGRFTISRDNAKNTVYLQMNSLKPEDTAVYYCAADYQSVGGAEYDYWGQGTQVTVSS,high polyreactivity
15,QVQLVESGGGLVQAGGSLRLSCAASGRIFYFYPMGWYRQAPGKERELVAAISTSGGSTYYADSVKGRFTISRDNAKNTVYLQMNSLKPEDTAVYYCAARFRYYVSEYDYWGQGTQVTVSS,low polyreactivity
16,QVQLVESGGGLVQAGGSLRLSCAASGRIFYGKAMGWYRQAPGKERELVAGITTSGGGTYYADSVKGRFTISRDNAKNTVYLKMNSLKPEDTAVYYCAAKYRRYRDIQDGGYWGQGTQVTVSS,low polyreactivity
17,QVQLVESGGGLVQAGGSLRLSCAASGRIFYGNAMGWYRQAPGKERELVAAITRGVSTYYADSVKGRFTISRDNAKNTVYLQMNSLKPEDTAVYYCAKDRRVRMDSWGQGTQVTVSS,low polyreactivity
18,QVQLVESGGGLVQAGGSLRLSCAASGRIFYGNTMGWSRQAPGKERELVAAISLRGGSTYYADSVKGRFTISRDTAKNTVSLQMNSLKPEDTAVYYCAATGGRGPRRYYWGQGTQVTVSS,high polyreactivity
19,QVQLVESGGGLVQAGGSLRLSCAASGRIFYGNTMGWYRQAPGKERELVAAISRSGGSTYYADSVKGRFTISRDNAKNTVYLQMNSLKPEDTAVYYCNARYYRKYDYWGQGTQVTVSS,high polyreactivity
20,QVQLVESGGGLVQAGGSLRLSCAASGRIFYGYAMGWYRQAPGKDRELVATISRSGARTHYADSVKGRFTISRDNAKNTVYLQMNSLKQEDTAVYYCAADVYLSRYEKYGYWGQGTQVTVSS,high polyreactivity
21,QVQLVESGGGLVQAGGSLRLSCAASGRIFYGYAMGWYRQAPGKEREFVAAITVSAGSTYYADSVKGRFTISRDNAKNTVYLQMNSLKPEDTAVYYCAAKRYVYPSYRFDYWGKGTQVTVSS,low polyreactivity
22,QVQLVESGGGLVQAGGSLRLSCAASGRIFYGYAMGWYRQAPGKERELVAAITRGGSTYYADSVKGRFTISRDNAKNTVYLQMNSLKPEDTAVYYCAAVIYSYRSYREYGYWGQGTQVTVSS,high polyreactivity

row,Sequence,polyreactivity (PSR sort gate)
1,QVQLVESGGGLVQAGGSLRLSCAASGRIFYGYAMGWYRQAPGKERELVAAITSRGTSTYYADSVKGRFTISRDTAKNTVYLQMNSLKPEDTAVYYCNAAYGRSFYSKVFSYNYWGQGTQVTVSS,high polyreactivity
2,QVQLVESGGGLVQAGGSLRLSCAASGRIFYGYAMGWYRQAPGKERELVASISRRGSSTYYADSVKGRFTISRDNAKNTVYLQMNSLKPEDTAVYYCAKYTVQYAISHYDYWGQGTQVTVSS,high polyreactivity
3,QVQLVESGGGLVQAGGSLRLSCAASGRIFYGYAMGWYRQAPGKERELVASITVSRTSTYYADSVKGRFTISRDNAKNTVYLQMNSLKPEDTAVYYCAVGDGFEYDWGQGTQVTVSS,low polyreactivity
4,QVQLVESGGGLVQAGGSLRLSCAASGRIFYGYTMGWYRPAPGKERELVAAISRYGGSTYYADSVKGRFTISRDNAKKTVYLQMNSLKPEDTAVYYCNAVYSRGYVIKPYDYWGQGTQVTVSS,high polyreactivity
5,QVQLVESGGGLVQAGGSLRLSCAASGRIFYGYTMGWYRQAPGKERELVAAITWSGVSTYADSVKGRFTISRDNAKNTVYLQMNSLKPEDTAVYYCNADPIYGKRWRYYYWGQGTQVTVSS,high polyreactivity
6,QVQLVESGGGLVQAGGSLRLSCAASGRIFYHNAMGWYRQAPGKERELVAVISWSGTRTYYADSVKGRFTISRDNAKNTVYLQMNSLKPEDTAVYYFNVEPYYTSYWIYPYIYTYDYWGQGTQVTVSS,high polyreactivity
7,QVQLVESGGGLVQAGGSLRLSCAASGRIFYHYAMGWYRQPPGKESELVAAITWSGDSTYYADSVKGRFTISRDNAQNTVYLQMNSLKPEDTAVSYCATSSPYGVRRYSRGSWGQGTQVTVSS,high polyreactivity
8,QVQLVESGGGLVQAGGSLRLSCAASGRIFYINAMGWYIQAPGKERELVASITGSGGRTYYADSVKGRFTISRDNAKNTVYLQMNSLKPEDTAVYYCNADLYVGYLYYLYDYWGQGTQVTVSS,low polyreactivity
9,QVQLVESGGGLVQAGGSLRLSCAASGRIFYINAMGWYRQAPGTERELVAAITEGGVSTYYADSVKGRFTSSRDNAKNTVYLQMNSLKPEDTAVYYCNTTGGPDGIVIYEYWGQGTQVTVSS,low polyreactivity
10,QVQLVESGGGLVQAGGSLRLSCAASGRIFYIYAMGWFRQAPGKERELVAAITNGGSTNYADSVKGRFTISRDNAKNTVYLQMNSLKPEDTAVYYCAASVGTYAYARTVYRYDYWGQGTQVTVSS,low polyreactivity
11,QVQLVESGGGLVQAGGSLRLSCAASGRIFYIYTMGWYRPAPGKEREFVAGINWNGGSTYYADSVKGRFTISRDNAKNTVYLQMNSLKPEDTAVYYCNADQYWDRYYYWGQGTQVTVSS,low polyreactivity
12,QVQLVESGGGLVQAGGSLRLSCAASGRIFYKNVMVWYRQAPGKERELVAAISTSTGRTYYADSVKGRFTISRDNAKNTVYLEMNSLKPEDTAVYYCNAVRGHTNGVLYRYDYWGQGTQVTVSS,high polyreactivity
13,QVQLVESGGGLVQAGGSLRLSCAASGRIFYLNAMGWYRQAPGKERELVAAISGSTGSTYYADSVKGRFTISRDNAKNTVYLQMNSLKPEDTAVYYCNAGGVYDEFNYWGQGTQVTVSS,low polyreactivity
14,QVQLVESGGGLVQAGGSLRLSCAASGRIFYLYGMGWYRQAPGKERELVAGITGSGGNTYYADSVKGRFTISRDNAMNTVYLQMNSLKPEDTAVYYCIARFRARPRMGYWGQGTQVTLSS,high polyreactivity
15,QVQLVESGGGLVQAGGSLRLSCAASGRIFYLYTMGWYRQAPGKEREFSRYYADSVKGRFTISRDNAKNTVYLQMNCLKPEDTAVYSCAAADHPPVWYGYWGQGTHVTVSS,low polyreactivity
16,QVQLVESGGGLVQAGGSLRLSCAASGRIFYNNAMGWYRQAPGKERELVATISRGGSTNYADSVKGRFTISRDNAKNTVYLQMNSLKPEDTAVYYCAAVTTRSYGYEYWGQGTQVTVSS,low polyreactivity
17,QVQLVESGGGLVQAGGSLRLSCAASGRIFYNSVMGWYRQAPGKERELVAAISSSGGSTYYADSVKGRFTISRDNAKNTVYLQMNSLKPEDTAVYYCATTRRVPGEYWGQGTQVTVSS,high polyreactivity
18,QVQLVESGGGLVQAGGSLRLSCAASGRIFYNYAMGWYRQAPGKERELVAAISGSGGSTYYADSVKGRFTISRDNAKNTVYLQMNSLKPEDTAVYYCNADTVYTRTAPYDYWGQGSQVTVSS,low polyreactivity
19,QVQLVESGGGLVQAGGSLRLSCAASGRIFYNYAMGWYRQAPGKERELVASINFSGTRTYYADSVKGRFTISRDNAKNTVYLQMNSLKPEDTAVYYCAARQAHGYYYWGQGTQVTVSS,high polyreactivity
20,QVQLVESGGGLVQAGGSLRLSCAASGRIFYPNAMGWYRQAPGKERELVAAITGRGGITYYADSVKGRFTISRDNAKNTVYLQMNSLKPEDTAVYYCNAAAYYPTNYGGYLFEYWGQGTQVTVSS,low polyreactivity
21,QVQLVESGGGLVQAGGSLRLSCAASGRIFYPNAMGWYRQAPGKERELVAGISSGGSTYYADSVKGRFTISRDNAKNTVYLQMNSLKPEDTAVYYCAARVYAHTSRRFLKYDYWGQGTQVTVSS,high polyreactivity
